Reference: the supplement of paper PMC10126150
± gives the standard deviation of the averaged measurements.

Test system: ATP
Assay: switch fluorescence ratio, 500 uM ATP over buffer (Cy3 cluster intensity, sum of 5 cycles each) (fold (ratio)); higher = stronger signal-on switching upon ATP binding; sequences stand for … in TCGTCGGCAGCGTCAGATGTGTATAAGAGACAGTTTTTTTTTTTTTTTTTTTTTTTTT…TC
Details: aptamer strand: ATP DNA aptamer (quencher-CACCTGGGGGAGTATTGCGGAGGAAGG + anchor), 100 nM annealed; ATP concentration: 500 uM
Summary of the method: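 The quencher-labelled ATP aptamer, at 100 nM, was annealed to Cy3-labelled switching-strand clusters on a modified Illumina MiSeq flow-cell. The clusters were imaged in selection buffer, then after 15 min with 500 uM ATP at 22 °C, and this buffer/ATP cycle ran five times with NaOH stripping and re-annealing between runs. Per-cluster fluorescence ratios, summed target-cycle over summed buffer-cycle Cy3 intensity, were averaged per switch-domain sequence. Clusters outside 100-1000 RFU were excluded.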
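Note: ATP exposure 15 min at 22 °C before imaging.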

Row | Sequence | switch fluorescence ratio
1 | GGTCGTTTGC | 1.05 ± 0.074
2 | TGGAGAAGAT | 0.978 ± 0.03
3 | TGATCGGGGG | 0.982 ± 0.064
4 | GTGACAGGTC | 0.974 ± 0.038
5 | TCTTTTGGAT | 0.994 ± 0.019
6 | AACGGGTGCA | 0.9896 ± 0.0011
7 | GATGATTATC | 0.986 ± 0.022
8 | TACGTGGGTA | 1 ± 0.0047
9 | TGGAATGGGG | 1 ± 0.037
10 | ACTACACTTT | 1.27 ± 0.018
11 | TCGTTCGTCG | 1.04 ± 0.06
12 | GAGTTTGGTG | 0.94 ± 0.033
13 | AAGGGGTAGG | 0.986 ± 0.036
14 | ATGTGGGTCT | 1.02 ± 0.056
15 | CGCGTTATGT | 1.03 ± 0.0081
16 | GGGGTAGAAC | 0.992 ± 0.028
17 | GGCTGAGGGT | 1 ± 0.016
18 | CAGTCGAGTT | 1.003 ± 0.0076
19 | TCATGTGGTA | 0.9915 ± 0.0093
20 | GGGGTAAAAA | 1.01 ± 0.018
21 | ATTGGCTAGT | 0.966 ± 0.02
22 | CTTCTCTAGT | 0.9742 ± 0.0069
23 | CGGTGGGTGC | 0.997 ± 0.038

Row | Sequence | switch fluorescence ratio
24 | GAAATCCGAA | 1.08 ± 0.058
25 | GAGGGGTATG | 1 ± 0.019
26 | CGTACCTGCG | 1.06 ± 0.042
27 | AAAACATAGC | 0.965 ± 0.056
28 | TGTGATTTGA | 0.9763 ± 0.0026
29 | ATTTCAAATT | 1.02 ± 0.028
30 | TCAATTAGGC | 1.05 ± 0.027
31 | TTCTGTGTTT | 1.01 ± 0.037
32 | TATTAGTGCT | 0.977 ± 0.033
33 | GTTCTAGGTT | 0.9961 ± 0.0044
34 | TAGTTTTGTG | 1.01 ± 0.062
35 | AAGTTTTTAT | 0.971 ± 0.019
36 | TCATTTAGGG | 0.9893 ± 0.0081
37 | GTCGCTTAGT | 0.973 ± 0.018
38 | TGAACGGATC | 1.03 ± 0.008
39 | TCTGATTTGT | 1.01 ± 0.013
40 | GGGATTTGGC | 0.995 ± 0.036
41 | GGGTATATTG | 0.983 ± 0.011
42 | CGGGGTAATC | 1.03 ± 0.047
43 | TCCGAAACAT | 1.575 ± 0.011
44 | AGTAAGATTG | 0.9889 ± 0.0026
45 | CTTAAAGAGT | 0.964 ± 0.043
46 | ATGTGGTGAC | 0.978 ± 0.039

Row | Sequence | switch fluorescence ratio
47 | TCGTAGAGGG | 1.008 ± 0.0013
48 | AAAGTTTTTT | 1.19 ± 0.39
49 | GGGAAAGGAT | 1.02 ± 0.033
50 | TAGTATGTGT | 0.9576 ± 0.0043
51 | CGGGTTACGA | 1.02 ± 0.028
52 | TTCTATACCG | 0.982 ± 0.036
53 | GGAGTTTGAC | 1.05 ± 0.068
54 | CGGGCTCCGC | 1.21 ± 0.099
55 | TTGGGGCGGA | 0.9923 ± 0.0095
56 | TCAGGAAAAG | 0.989 ± 0.019
57 | ATGATGATGA | 1.03 ± 0.02
58 | AGGTTAAGTA | 1 ± 0.027
59 | GAAATAAATA | 0.9835 ± 0.0081
60 | TATTTTACTA | 1.01 ± 0.032
61 | AAGGCGCGTG | 1.01 ± 0.045
62 | GGGGTGTTCT | 1.02 ± 0.045
63 | TTTTGTGGCG | 1.04 ± 0.033
64 | TTTAGTGTCT | 0.983 ± 0.021
65 | ATGTTGTTGA | 0.998 ± 0.024
66 | TCATAATTGG | 1.005 ± 0.0045
67 | TCGTTTTGAG | 0.971 ± 0.039
68 | TTGGAGATAT | 1.07 ± 0.13
69 | GAGGTGTCG | 1.04 ± 0.041

Row | Sequence | switch fluorescence ratio
70 | TTTTCGGGTG | 1.05 ± 0.024
71 | ACGTAATGG | 1.57 ± 0.059
72 | GATGCAGGCC | 0.892 ± 0.017
73 | ATTGTAGAGT | 0.985 ± 0.026
74 | TTAAGCCGGT | 1.04 ± 0.036
75 | GGGTGGGGGC | 1.02 ± 0.037
76 | GTAAATTGTG | 1.01 ± 0.047
77 | GTTTTGTGTA | 1.01 ± 0.074
78 | ACACCCGGCC | 1.28 ± 0.068
79 | GGCGGGATGC | 1 ± 0.031
80 | TGTGGCTCTG | 0.9571 ± 0.0087
81 | TGCCCTTGCG | 0.9827 ± 0.0046
82 | TTTGACGTGC | 1.02 ± 0.033
83 | ATTACTATGG | 1.02 ± 0.02
84 | GGGGCCAATT | 1.01 ± 0.032
85 | ACTACGTACA | 1.68 ± 0.024
86 | CCAGGGAGTG | 1.04 ± 0.015
87 | TTCTGGGCGG | 1.02 ± 0.032
88 | ATGGGGTCAG | 0.993 ± 0.021
89 | GCTCGGGGTC | 0.978 ± 0.062
90 | TAATTTGGCT | 1.01 ± 0.035
91 | AATGGCAATG | 1.05 ± 0.026
92 | TTTCGTATGT | 0.997 ± 0.05

Row | Sequence | switch fluorescence ratio
93 | GGCTAGCCTA | 1.01 ± 0.013
94 | CTCAGCCATT | 1.36 ± 0.039
95 | GGGATCCTTG | 1 ± 0.022
96 | GGTAAGTTTG | 1.03 ± 0.028
97 | ATAATGTGAA | 1.03 ± 0.017
98 | GATAATTTTG | 0.989 ± 0.027
99 | AGCGCATGTG | 0.996 ± 0.013
100 | TATAGGTGCG | 0.9891 ± 0.0049
101 | GCCTTTTCTG | 0.962 ± 0.031
102 | ATAAAAAAAG | 1.05 ± 0.021
103 | ATTTGTCCGT | 1.03 ± 0.018
104 | TTTTTGAAGA | 0.986 ± 0.046
105 | TTGTCTTTTT | 0.998 ± 0.015
106 | AATTTGTTCT | 0.999 ± 0.025
107 | CCGAAGGATT | 1.022 ± 0.0044
108 | TGGGGTTAGA | 0.978 ± 0.029
109 | TATATCGGCT | 1.03 ± 0.023
110 | GGGAGGAGGG | 0.976 ± 0.035
111 | AGATAACTTT | 1.02 ± 0.013
112 | TAAAAACCTT | 1.43 ± 0.35
113 | GCTAGGCATG | 1.04 ± 0.027
114 | AATTTGGTAT | 1.04 ± 0.011
115 | ATCGGGTGGG | 1.001 ± 0.0075

Row | Sequence | switch fluorescence ratio
116 | TGCGAAATTT | 0.965 ± 0.013
117 | CAGATATGGC | 1.05 ± 0.034
118 | TCGGGGGCCT | 0.959 ± 0.022
119 | TGAAGGATTT | 1.01 ± 0.034
120 | TACGCTGGGG | 1.02 ± 0.04
121 | TAAGAGGGGC | 1 ± 0.037
122 | GCGAATGCGG | 1.006 ± 0.003
123 | TACATAATTA | 0.993 ± 0.021
124 | CGACTGATAT | 1.078 ± 0.0078
125 | ACTTCTCTTA | 1.01 ± 0.013
126 | GGAGACGGGG | 0.989 ± 0.011
127 | TATGGTCAGT | 0.968 ± 0.047
128 | TAAGCTTTTG | 1.025 ± 0.0084
129 | ATGGGAAACT | 1.012 ± 0.0074
130 | ATAGATCAGC | 0.995 ± 0.025
131 | GGTTTGGGCG | 1.03 ± 0.034
132 | AGGTTCTATT | 0.9864 ± 0.0089
133 | GAGGTTGATC | 0.983 ± 0.056
134 | GGGGATTTGT | 0.994 ± 0.034
135 | GCCTTCTGGA | 1.05 ± 0.036
136 | ACTGTAAGTC | 1.06 ± 0.026
137 | AGTAAGTCGG | 0.975 ± 0.022
138 | TAGGGCTGCA | 1.06 ± 0.079

Row | Sequence | switch fluorescence ratio
139 | CGGAATGTGT | 1 ± 0.015
140 | TATCAAAAAT | 0.994 ± 0.013
141 | ATCAGATGAA | 0.999 ± 0.023
142 | CTTTTACTCG | 1.01 ± 0.073
143 | TTGTAAATGC | 1.26 ± 0.29
144 | AGGTGGGAGT | 1.02 ± 0.021
145 | ATAAAGAAGC | 1.02 ± 0.022
146 | TATAAGTTTG | 0.999 ± 0.015
147 | AGTAAGTCTG | 0.969 ± 0.02
148 | CTTGGTCAAG | 0.9834 ± 0.0062
149 | TTTGGTTTTC | 1.02 ± 0.033
150 | AAGCAGCCGG | 0.99 ± 0.046
151 | GAGATGATTT | 1.02 ± 0.063
152 | GGTGCCGAAT | 0.998 ± 0.031
153 | TCATGGGGCT | 1.02 ± 0.019
154 | TATGGAGGGA | 0.996 ± 0.021
155 | TGGAGTGGGG | 1 ± 0.025
156 | TTTTGAGGCA | 1.02 ± 0.027
157 | AGAATCGTAT | 1.01 ± 0.028
